# US20140057284A1, “PHOTOLUMINESCENT MOLECULAR COMPLEX AND METHOD FOR DETERMINING OF THE CONCENTRATION OF SAID MOLECULAR COMPLEX” (priority 2011, published 2014)
# Tests used:
# Experiment in all cases: biochemical
# Details in all cases: read-out: Percentages of residual activities of the kinase reaction
# [1] = target: PIM1 (Homo sapiens, UniProt P11309)
# Experimental: (§1) Selectivity testing (Table 2) was performed on the commercial basis at the Division of Signal Transduction Therapy, University of Dundee. ATP concentrations that were used in testing were close to the Km value of the kinase.
# [2] = target: CSK (Homo sapiens, UniProt P41240)
# Experimental: as §1
# [3] = target: RSK1 (Homo sapiens, UniProt Q15418)
# Experimental: as §1
# [4] = target: PRK2 (Homo sapiens, UniProt Q16513)
# Experimental: as §1
# [5] = target: Aurora A (Homo sapiens, UniProt O14965)
# Experimental: as §1
# [6] = target: MKK1 (Homo sapiens, UniProt Q02750)
# Experimental: as §1
# [7] = target: CHK1 (Homo sapiens, UniProt O14757)
# Experimental: as §1
# [8] = target: EF2K (Homo sapiens, UniProt O00418)
# Experimental: as §1
# [9] = target: IR (Homo sapiens, UniProt P06213)
# Experimental: as §1
# [10] = target: HIPK1 (Homo sapiens, UniProt Q86Z02)
# Experimental: as §1
# [11] = target: GSK3b (Homo sapiens, UniProt P49841)
# Experimental: as §1
# [12] = target: JNK1 (Homo sapiens, UniProt P45983)
# Experimental: as §1
# [13] = target: CAMKKb (Homo sapiens, UniProt Q96RR4)
# Experimental: as §1
# [14] = target: PKD1 (Homo sapiens, UniProt Q15139)
# Experimental: as §1
# [15] = target: IKKb (Homo sapiens, UniProt O14920)
# Experimental: as §1
# [16] = target: JNK2 (Homo sapiens, UniProt P45984)
# Experimental: as §1
# [17] = target: MKK6 (Homo sapiens, UniProt P52564)
# Experimental: as §1
# [18] = target: S6K1 (Homo sapiens, UniProt P23443)
# Experimental: as §1
# [19] = target: ERK1 (Homo sapiens, UniProt P27361)
# Experimental: as §1
# [20] = target: MKK2 (Homo sapiens, UniProt P36507)
# Experimental: as §1
# [21] = target: Src (Homo sapiens, UniProt P12931)
# Experimental: as §1
# [22] = target: PKCz (Homo sapiens, UniProt Q05513)
# Experimental: as §1
# [23] = target: MAPKAP-K2 (Homo sapiens, UniProt P49137)
# Experimental: as §1
# [24] = target: p38g MAPK (Homo sapiens, UniProt P53778)
# Experimental: as §1
# [25] = target: TTK (Homo sapiens, UniProt P33981)
# Experimental: as §1
# [26] = target: EPH-A4 (Homo sapiens, UniProt P54764)
# Experimental: as §1
# [27] = target: FGF-R1 (Homo sapiens, UniProt P11362)
# Experimental: as §1
# [28] = target: PKBa (Homo sapiens, UniProt P31749)
# Experimental: as §1
# [29] = target: VEG-FR (Homo sapiens, UniProt P17948)
# Experimental: as §1
# [30] = target: SGK1 (Homo sapiens, UniProt O00141)
# Experimental: as §1
# [31] = target: MST4 (Homo sapiens, UniProt Q9P289)
# Experimental: as §1
# [32] = target: GCK (Homo sapiens, UniProt Q12851)
# Experimental: as §1
# [33] = target: PAK6 (Homo sapiens, UniProt Q9NQU5)
# Experimental: as §1
# [34] = target: TBK1 (Homo sapiens, UniProt Q9UHD2)
# Experimental: as §1
# [35] = target: IRAK4 (Homo sapiens, UniProt Q9NWZ3)
# Experimental: as §1
# [36] = target: MARK4 (Homo sapiens, UniProt Q96L34)
# Experimental: as §1
# [37] = target: MARK3 (Homo sapiens, UniProt P27448)
# Experimental: as §1
# [38] = target: PKBb (Homo sapiens, UniProt P31751)
# Experimental: as §1
# [39] = target: MNK2 (Homo sapiens, UniProt Q9HBH9)
# Experimental: as §1
# [40] = target: MST2 (Homo sapiens, UniProt Q13188)
# Experimental: as §1
# [41] = target: MLK1 (Homo sapiens, UniProt P80192)
# Experimental: as §1
# Sequence of EF2K (O00418 whole entry): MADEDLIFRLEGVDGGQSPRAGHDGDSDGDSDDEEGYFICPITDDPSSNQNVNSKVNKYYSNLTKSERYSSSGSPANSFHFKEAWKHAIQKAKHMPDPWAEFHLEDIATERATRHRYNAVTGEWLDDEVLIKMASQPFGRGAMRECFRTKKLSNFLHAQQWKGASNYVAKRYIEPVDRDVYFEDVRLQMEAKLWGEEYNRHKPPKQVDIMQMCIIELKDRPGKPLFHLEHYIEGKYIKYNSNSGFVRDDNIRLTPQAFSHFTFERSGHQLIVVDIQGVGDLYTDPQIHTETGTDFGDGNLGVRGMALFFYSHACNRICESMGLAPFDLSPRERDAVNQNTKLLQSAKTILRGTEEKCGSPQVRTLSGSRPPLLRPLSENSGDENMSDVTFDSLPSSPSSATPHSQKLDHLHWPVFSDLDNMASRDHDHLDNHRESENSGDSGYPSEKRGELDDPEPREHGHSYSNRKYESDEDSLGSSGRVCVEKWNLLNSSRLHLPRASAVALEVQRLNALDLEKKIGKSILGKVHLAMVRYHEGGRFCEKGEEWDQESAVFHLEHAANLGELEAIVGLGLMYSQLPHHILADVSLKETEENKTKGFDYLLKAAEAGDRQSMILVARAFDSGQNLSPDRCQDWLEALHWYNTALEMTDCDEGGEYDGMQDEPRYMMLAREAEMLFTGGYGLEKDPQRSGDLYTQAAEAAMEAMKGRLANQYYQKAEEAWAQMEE
# Sequence of IRAK4 (Q9NWZ3 whole entry, species assumed): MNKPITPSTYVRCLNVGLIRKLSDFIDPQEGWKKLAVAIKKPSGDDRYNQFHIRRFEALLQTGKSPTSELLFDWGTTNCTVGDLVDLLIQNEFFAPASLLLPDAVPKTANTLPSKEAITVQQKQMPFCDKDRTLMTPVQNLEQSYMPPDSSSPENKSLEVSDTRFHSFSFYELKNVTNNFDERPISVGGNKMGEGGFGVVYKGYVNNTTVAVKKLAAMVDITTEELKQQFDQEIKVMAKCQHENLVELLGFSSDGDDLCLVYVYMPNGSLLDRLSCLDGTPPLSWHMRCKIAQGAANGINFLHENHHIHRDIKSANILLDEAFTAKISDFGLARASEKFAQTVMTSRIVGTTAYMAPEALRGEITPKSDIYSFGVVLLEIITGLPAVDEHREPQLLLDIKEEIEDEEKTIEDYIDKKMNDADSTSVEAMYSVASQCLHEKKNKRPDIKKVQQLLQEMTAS
# Sequence of MNK2 (Q9HBH9 whole entry, species assumed): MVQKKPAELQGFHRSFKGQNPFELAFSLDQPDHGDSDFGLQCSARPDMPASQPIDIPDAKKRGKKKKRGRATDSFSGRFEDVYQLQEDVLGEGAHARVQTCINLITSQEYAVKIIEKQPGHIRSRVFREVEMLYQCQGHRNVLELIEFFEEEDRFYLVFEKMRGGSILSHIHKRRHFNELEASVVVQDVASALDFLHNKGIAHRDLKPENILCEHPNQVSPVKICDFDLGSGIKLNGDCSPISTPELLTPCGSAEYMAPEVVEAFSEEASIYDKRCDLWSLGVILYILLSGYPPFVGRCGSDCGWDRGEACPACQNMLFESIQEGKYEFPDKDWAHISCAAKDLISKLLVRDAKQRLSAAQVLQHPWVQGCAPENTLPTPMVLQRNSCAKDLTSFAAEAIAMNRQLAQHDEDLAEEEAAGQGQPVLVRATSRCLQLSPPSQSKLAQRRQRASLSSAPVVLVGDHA
# Sequence of VEG-FR (P17948 784-1338 limits assumed): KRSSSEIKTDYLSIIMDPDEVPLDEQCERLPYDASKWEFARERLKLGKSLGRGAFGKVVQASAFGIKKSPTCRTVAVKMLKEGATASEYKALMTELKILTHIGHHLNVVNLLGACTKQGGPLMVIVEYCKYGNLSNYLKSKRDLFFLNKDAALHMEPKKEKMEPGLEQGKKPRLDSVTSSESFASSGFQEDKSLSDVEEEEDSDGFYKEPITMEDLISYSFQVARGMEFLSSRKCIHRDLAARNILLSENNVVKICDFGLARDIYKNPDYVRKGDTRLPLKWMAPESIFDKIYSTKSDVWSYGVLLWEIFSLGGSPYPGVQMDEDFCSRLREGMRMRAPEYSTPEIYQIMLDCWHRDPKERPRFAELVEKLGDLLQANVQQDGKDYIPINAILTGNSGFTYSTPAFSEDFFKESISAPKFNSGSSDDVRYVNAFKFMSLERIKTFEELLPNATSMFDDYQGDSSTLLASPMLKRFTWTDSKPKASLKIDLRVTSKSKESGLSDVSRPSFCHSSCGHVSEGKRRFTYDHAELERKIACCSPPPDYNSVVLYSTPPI
# Sequence of p38g MAPK (P53778 whole entry): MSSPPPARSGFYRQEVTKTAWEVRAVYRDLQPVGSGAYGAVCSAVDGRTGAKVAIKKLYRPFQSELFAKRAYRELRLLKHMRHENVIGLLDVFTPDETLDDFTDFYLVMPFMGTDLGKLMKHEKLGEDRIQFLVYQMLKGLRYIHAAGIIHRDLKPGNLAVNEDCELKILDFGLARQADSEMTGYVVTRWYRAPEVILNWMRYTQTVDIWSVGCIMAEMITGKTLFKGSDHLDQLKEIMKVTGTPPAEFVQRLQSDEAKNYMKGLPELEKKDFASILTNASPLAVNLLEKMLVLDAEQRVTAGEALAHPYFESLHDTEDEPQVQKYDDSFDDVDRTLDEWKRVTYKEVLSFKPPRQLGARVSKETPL
# Sequence of TBK1 (Q9UHD2 whole entry, species assumed): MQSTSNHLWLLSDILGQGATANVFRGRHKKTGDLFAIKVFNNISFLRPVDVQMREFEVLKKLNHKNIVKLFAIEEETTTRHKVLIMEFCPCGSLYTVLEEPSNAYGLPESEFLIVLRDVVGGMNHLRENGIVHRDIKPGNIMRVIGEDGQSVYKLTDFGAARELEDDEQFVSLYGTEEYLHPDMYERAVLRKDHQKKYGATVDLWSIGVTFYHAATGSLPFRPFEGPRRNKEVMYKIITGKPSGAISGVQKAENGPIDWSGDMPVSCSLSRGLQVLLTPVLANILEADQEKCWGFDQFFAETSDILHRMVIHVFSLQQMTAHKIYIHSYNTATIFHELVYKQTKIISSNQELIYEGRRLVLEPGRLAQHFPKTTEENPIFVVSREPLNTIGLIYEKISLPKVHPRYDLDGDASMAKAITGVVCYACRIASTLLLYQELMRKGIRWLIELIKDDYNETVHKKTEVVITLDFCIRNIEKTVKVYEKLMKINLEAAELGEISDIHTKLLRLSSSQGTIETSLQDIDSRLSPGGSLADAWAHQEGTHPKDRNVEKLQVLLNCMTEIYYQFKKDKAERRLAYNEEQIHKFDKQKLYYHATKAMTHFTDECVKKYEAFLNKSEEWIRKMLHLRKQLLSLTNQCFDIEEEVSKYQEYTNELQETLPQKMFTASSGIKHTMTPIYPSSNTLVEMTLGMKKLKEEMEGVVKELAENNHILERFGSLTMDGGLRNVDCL
# Sequence of MARK3 (P27448 whole entry, species assumed): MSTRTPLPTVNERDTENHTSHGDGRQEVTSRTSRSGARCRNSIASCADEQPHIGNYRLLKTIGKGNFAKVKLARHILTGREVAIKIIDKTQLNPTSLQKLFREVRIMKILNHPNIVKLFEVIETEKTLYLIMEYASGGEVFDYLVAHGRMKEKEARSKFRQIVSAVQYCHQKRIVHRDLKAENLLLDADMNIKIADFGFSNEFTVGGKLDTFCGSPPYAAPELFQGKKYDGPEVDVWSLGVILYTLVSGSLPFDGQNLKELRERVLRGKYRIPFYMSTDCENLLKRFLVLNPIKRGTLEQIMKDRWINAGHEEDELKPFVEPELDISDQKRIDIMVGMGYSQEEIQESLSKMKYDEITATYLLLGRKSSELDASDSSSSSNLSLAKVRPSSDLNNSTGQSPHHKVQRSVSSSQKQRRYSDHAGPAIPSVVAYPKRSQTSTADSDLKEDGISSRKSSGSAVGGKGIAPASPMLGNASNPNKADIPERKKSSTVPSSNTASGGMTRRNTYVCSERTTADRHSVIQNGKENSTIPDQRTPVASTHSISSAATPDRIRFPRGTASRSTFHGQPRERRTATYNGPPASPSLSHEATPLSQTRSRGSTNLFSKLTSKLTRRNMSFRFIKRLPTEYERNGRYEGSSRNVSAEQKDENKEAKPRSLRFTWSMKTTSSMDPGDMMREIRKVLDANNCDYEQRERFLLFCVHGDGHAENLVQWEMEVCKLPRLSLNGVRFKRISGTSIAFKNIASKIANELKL
# Sequence of S6K1 (P23443 whole entry, species assumed): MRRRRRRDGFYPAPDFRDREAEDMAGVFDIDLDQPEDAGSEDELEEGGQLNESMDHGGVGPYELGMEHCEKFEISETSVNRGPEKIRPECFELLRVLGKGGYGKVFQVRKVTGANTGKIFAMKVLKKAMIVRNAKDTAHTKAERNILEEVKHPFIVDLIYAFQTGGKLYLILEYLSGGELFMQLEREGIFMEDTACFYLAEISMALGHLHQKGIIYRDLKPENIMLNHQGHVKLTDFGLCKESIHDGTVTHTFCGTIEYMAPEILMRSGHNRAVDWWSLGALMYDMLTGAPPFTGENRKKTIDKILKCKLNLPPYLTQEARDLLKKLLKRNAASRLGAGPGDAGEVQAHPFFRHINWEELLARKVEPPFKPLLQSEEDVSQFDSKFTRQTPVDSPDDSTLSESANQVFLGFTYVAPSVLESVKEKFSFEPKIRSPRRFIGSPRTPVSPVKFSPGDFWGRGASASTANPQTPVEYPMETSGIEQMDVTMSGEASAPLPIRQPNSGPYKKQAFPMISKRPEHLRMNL
# Sequence of JNK1 (P45983 whole entry, species assumed): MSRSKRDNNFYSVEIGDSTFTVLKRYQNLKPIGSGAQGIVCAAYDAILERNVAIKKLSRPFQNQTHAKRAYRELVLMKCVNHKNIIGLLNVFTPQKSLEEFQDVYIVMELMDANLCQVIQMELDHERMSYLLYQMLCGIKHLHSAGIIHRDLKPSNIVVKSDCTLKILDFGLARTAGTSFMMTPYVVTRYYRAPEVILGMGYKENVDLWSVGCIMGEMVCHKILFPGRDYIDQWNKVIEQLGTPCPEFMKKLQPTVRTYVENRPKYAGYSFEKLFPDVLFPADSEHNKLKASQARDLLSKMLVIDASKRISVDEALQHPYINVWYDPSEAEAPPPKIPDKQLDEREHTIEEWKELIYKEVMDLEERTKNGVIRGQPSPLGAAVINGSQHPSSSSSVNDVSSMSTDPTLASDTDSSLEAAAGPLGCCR
smiles,measurement,setting,value
CN(C)c1ccc2c(c1)Oc1cc(N(C)C)ccc1C21OC(=O)c2cc(C(=O)NCCCC[C@@H](NC(=O)[C@@H](CCCNC(=N)N)NC(=O)[C@@H](CCCNC(=N)N)NC(=O)[C@@H](CCCNC(=N)N)NC(=O)[C@@H](CCCNC(=N)N)NC(=O)[C@@H](CCCNC(=N)N)NC(=O)[C@@H](CCCNC(=N)N)NC(=O)CCCCCNC(=O)[C@@H](CCCNC(=N)N)NC(=O)CCCCCNC(=O)c3ccc(-c4ccnc(N)n4)s3)C(N)=O)ccc21 [ARC-669],remaining activity at 1 µM,[1],3%
same,remaining activity at 1 µM,[2],51%
same,remaining activity at 1 µM,[3],2%
same,remaining activity at 1 µM,[4],4%
same,remaining activity at 1 µM,[5],86%
same,remaining activity at 1 µM,[6],69%
same,remaining activity at 1 µM,[7],29%
same,remaining activity at 1 µM,[8],43%
same,remaining activity at 1 µM,[9],52%
same,remaining activity at 1 µM,[10],94%
same,remaining activity at 1 µM,[11],77%
same,remaining activity at 1 µM,[12],91%
same,remaining activity at 1 µM,[13],41%
same,remaining activity at 1 µM,[14],37%
same,remaining activity at 1 µM,[15],50%
same,remaining activity at 1 µM,[16],85%
same,remaining activity at 1 µM,[17],107%
same,remaining activity at 1 µM,[18],4%
same,remaining activity at 1 µM,[19],114%
same,remaining activity at 1 µM,[20],68%
same,remaining activity at 1 µM,[21],106%
same,remaining activity at 1 µM,[22],10%
same,remaining activity at 1 µM,[23],13%
same,remaining activity at 1 µM,[24],104%
same,remaining activity at 1 µM,[25],66%
same,remaining activity at 1 µM,[26],76%
same,remaining activity at 1 µM,[27],54%
same,remaining activity at 1 µM,[28],1%
same,remaining activity at 1 µM,[29],25%
same,remaining activity at 1 µM,[30],8%
same,remaining activity at 1 µM,[31],45%
same,remaining activity at 1 µM,[32],10%
same,remaining activity at 1 µM,[33],35%
same,remaining activity at 1 µM,[34],27%
same,remaining activity at 1 µM,[35],82%
same,remaining activity at 1 µM,[36],86%
same,remaining activity at 1 µM,[37],20%
same,remaining activity at 1 µM,[38],4%
same,remaining activity at 1 µM,[39],76%
same,remaining activity at 1 µM,[40],94%
same,remaining activity at 1 µM,[41],60%
